Consider four molecules from paper PMC10117238, “Molecular mechanism underlying the increased risk of colorectal cancer metastasis caused by single nucleotide polymorphisms in LI-cadherin gene” (Scientific Reports, 2023).

Data set [1] has as its target LI-cadherin EC1-2 (Homo sapiens) (UniProt Q12864). The experiment in a line: SV-AUC. The settings on record: cited from earlier work.
Data set [2] has as its target LI-cadherin EC1-4 (Homo sapiens) (UniProt Q12864). Put plainly: SV-AUC. The settings on record: cited from earlier work.
Data set [3] deals with T1, LI-cadherin EC1-2K115E (human).
T1 chain: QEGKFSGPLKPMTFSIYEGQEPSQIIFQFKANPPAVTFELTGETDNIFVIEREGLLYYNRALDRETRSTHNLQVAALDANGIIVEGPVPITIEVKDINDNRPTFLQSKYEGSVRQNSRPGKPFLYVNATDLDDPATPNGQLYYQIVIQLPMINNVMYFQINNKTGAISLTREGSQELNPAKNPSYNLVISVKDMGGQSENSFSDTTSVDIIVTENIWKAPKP
The experiment in a line: AUC; sedimentation velocity (SV-AUC), 20 °C, 42,000 rpm, UV detection; 1-120 µM EC1-4K115E or 1-60 µM EC1-2K115E; buffer A (10 mM HEPES-NaOH pH 7.5, 150 mM NaCl, 3 mM CaCl2); homodimer to monomers. The settings on record: both partners purified.

Data set [4] deals with the molecule itself. The data set is described as above.

For orientation: Kd means the constant that tells how readily two partners part at equilibrium. As to LI-cadherin EC1-2 (from UniProt Q12864), the Kd in data set [1] was 75 µM.

In the case of LI-cadherin EC1-4 (from UniProt Q12864), in data set [2], the Kd is 39.8 µM.

B1: LI-cadherin EC1-2K115E (domain or fragment)
chain: QEGKFSGPLKPMTFSIYEGQEPSQIIFQFKANPPAVTFELTGETDNIFVIEREGLLYYNRALDRETRSTHNLQVAALDANGIIVEGPVPITIEVKDINDNRPTFLQSKYEGSVRQNSRPGKPFLYVNATDLDDPATPNGQLYYQIVIQLPMINNVMYFQINNKTGAISLTREGSQELNPAKNPSYNLVISVKDMGGQSENSFSDTTSVDIIVTENIWKAPKP
modifications: N-glycosylated (Expi293F expression, N-glycans on EC2); Ca2+-bound (3 mM CaCl2). Limits by convention: mature N-terminus Gln23 (as in 7CYM) to end of UniProt Cadherin 2 domain (244). C-terminal …
As usually defined, the stoichiometry N is the number of molecules, sites or subunits per partner or assembly. For the molecule B1, in data set [3], the affinity, expressed as Kd, was 343 µM and the “stoichiometry N” value is 2.

B2: LI-cadherin EC1-4K115E (domain or fragment, human)
chain: QEGKFSGPLKPMTFSIYEGQEPSQIIFQFKANPPAVTFELTGETDNIFVIEREGLLYYNRALDRETRSTHNLQVAALDANGIIVEGPVPITIEVKDINDNRPTFLQSKYEGSVRQNSRPGKPFLYVNATDLDDPATPNGQLYYQIVIQLPMINNVMYFQINNKTGAISLTREGSQELNPAKNPSYNLVISVKDMGGQSENSFSDTTSVDIIVTENIWKAPKPVEMVENSTDPHPIKITQVRWNDPGAQYSLVDKEKLPRFPFSIDQEGDIYVTQPLDREEKDAYVFYAVAKDEYGKPLSYPLEIHVKVKDINDNPPTCPSPVTVFEVQENERLGNSIGTLTAHDRDEENTANSFLNYRIVEQTPKLPMDGLFLIQTYAGMLQLAKQSLKKQDTPQYNLTIEVSDKDFKTLCFVQINVID
notes: Liver Intestine-cadherin (LI-cadherin, CDH17), human; the first four N-terminal extracellular cadherin repeats EC1-4, with the SNP change Lys115 to Glu (c.343A>G); Made in mammalian cells, N-glycosylated; K115E is a SNP variant found in patients, made here by site-directed mutagenesis; also called K115E of EC1-4; source: Expi293F, transfected (pcDNA3.4), purified from the supernatant (Ni-NTA, SEC)
Take B2: in data set [4], binding was put at a Kd of 51.6 µM and the “stoichiometry N” value is 2.
